{"source": "paper PMC11467389", "key": {"[1]": {"test": "CHX chase, anti-Flag Western blot (half-life)", "conditions": "glycan lost; control: Flag-PDK1 WT"}, "[2]": {"test": "MG132 6 h, Flag IP, ubiquitin blot", "conditions": "glycan lost; control: Flag-PDK1 WT"}, "[3]": {"test": "CHX chase of Flag-PDK1, Western blot (half-life)", "conditions": "glycan lost; control: rhWnt3a alone"}, "[4]": {"test": "Western blot of endogenous PDK1 in ST2 cells", "conditions": "glycan lost; control: rhWnt3a alone"}}, "data": [{"substance": "PDK1 (pyruvate dehydrogenase kinase 1): S174A", "values": [{"measurement": "degradation_or_half_life", "setting": "[1]", "value": "decreases"}, {"measurement": "other: ubiquitination", "setting": "[2]", "value": "increases"}]}, {"substance": "PDK1 (pyruvate dehydrogenase kinase 1): OSMI", "values": [{"measurement": "degradation_or_half_life", "setting": "[3]", "value": "decreases"}]}, {"substance": "PDK1 (pyruvate dehydrogenase kinase 1): DON", "values": [{"measurement": "expression_or_secretion", "setting": "[4]", "value": "decreases"}]}]}
